Patent US20180057581A1 (MorphoSys, published 2018)

Assays:
Experiment in all cases: MSD specificity profiling, coated protein, Camille at 10 nM
Lectin (Lens culinaris) = molecular target: T1, Lectin (Lens culinaris) (Lens culinaris, UniProt P02870 31-210; P02870 218-269, limits assumed)
T1 sequence (looked up) 1: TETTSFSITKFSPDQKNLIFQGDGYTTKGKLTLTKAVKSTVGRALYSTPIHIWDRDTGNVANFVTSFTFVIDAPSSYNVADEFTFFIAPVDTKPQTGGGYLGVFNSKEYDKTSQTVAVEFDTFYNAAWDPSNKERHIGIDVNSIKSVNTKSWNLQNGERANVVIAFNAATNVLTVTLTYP
T1 sequence (looked up) 2: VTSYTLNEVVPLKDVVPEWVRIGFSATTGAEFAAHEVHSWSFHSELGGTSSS
Description: (§1) For this specificity profiling test the different proteins and controls were coated on two 384-well MSD plates with a concentration of 1 μg/ml at 4° C. over night. Plates were blocked with BSA and washed three times with PBS with 0.05% (v/v) Tween 20. Antibody samples were diluted to 100 nM and 10 nM in assay buffer (PBS with 0.5% (w/v) BSA, 0.05% (v/v) Tween 20). […] Samples and controls were incubated for three hours at room temperature. The plates were washed three times and 30 μl detection antibody (ECL-labeled anti-human Fab) were added per well and incubated for 1 h. After washing, MSD Read Buffer T with surfactant was added and electrochemiluminescence signals were detected using a Sector Imager 6000 (Meso Scale Discovery, Gaithersburg, Md., USA).

Lysozyme (chicken) = Lysozyme (chicken) (chicken, UniProt P00698 19-147)
Lysozyme (chicken), sequence (P00698 19-147): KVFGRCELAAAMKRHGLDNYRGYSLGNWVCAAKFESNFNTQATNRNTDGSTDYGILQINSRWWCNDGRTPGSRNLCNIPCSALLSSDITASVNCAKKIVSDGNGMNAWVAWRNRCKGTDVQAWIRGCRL
Description: as §1

human M-CSF = molecular target: T2, human M-CSF (human, UniProt P09603 33-255, limits assumed)
T2 construct: also called M-CSF (human); CSF-1
T2 sequence: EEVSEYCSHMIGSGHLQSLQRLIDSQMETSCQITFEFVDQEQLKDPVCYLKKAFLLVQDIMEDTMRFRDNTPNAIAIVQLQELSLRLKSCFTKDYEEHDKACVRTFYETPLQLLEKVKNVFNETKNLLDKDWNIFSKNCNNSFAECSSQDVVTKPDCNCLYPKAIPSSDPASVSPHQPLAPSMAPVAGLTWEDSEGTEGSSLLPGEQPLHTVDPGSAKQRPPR
Description: as §1

RNase A (cow) = molecular target: T3, RNase A (cow) (cow, UniProt P61823 27-150)
T3 sequence (looked up): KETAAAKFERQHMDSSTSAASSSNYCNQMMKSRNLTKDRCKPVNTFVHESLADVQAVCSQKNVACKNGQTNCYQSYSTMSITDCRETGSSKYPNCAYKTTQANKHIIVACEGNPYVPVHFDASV
Description: as §1

Transferrin (bovine) = Transferrin (bovine) (bovine, UniProt Q29443 20-704)
Transferrin (bovine), sequence (Q29443 20-704 limits assumed): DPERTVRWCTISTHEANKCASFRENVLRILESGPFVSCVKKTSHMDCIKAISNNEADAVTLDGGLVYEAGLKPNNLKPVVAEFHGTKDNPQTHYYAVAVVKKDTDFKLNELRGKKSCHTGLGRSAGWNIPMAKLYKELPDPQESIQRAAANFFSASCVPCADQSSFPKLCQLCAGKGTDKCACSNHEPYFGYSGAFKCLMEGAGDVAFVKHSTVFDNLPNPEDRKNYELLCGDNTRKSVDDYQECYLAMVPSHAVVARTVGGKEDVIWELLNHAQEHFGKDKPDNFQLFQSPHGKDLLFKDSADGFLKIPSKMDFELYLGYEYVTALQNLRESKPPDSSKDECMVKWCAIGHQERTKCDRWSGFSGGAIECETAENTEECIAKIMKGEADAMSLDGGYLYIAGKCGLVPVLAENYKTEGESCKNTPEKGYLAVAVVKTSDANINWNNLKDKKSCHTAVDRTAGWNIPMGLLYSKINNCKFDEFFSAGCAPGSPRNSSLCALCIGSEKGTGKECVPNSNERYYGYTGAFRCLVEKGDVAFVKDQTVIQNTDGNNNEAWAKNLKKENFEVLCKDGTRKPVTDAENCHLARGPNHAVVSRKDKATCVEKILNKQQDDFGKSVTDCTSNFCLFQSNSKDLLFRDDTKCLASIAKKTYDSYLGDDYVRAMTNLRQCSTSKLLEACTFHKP
Description: as §1

Cytochrome c (cow) = Cytochrome c (cow) (cow, UniProt P62894 2-105)
Cytochrome c (cow), sequence (P62894 2-105 limits assumed): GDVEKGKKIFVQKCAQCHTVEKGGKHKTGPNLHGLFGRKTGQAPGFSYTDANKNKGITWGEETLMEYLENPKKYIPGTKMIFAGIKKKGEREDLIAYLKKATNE
Description: as §1

Myoglobin (horse) = Myoglobin (horse) (horse, UniProt P68082 2-154)
Myoglobin (horse), sequence (P68082 2-154 limits assumed): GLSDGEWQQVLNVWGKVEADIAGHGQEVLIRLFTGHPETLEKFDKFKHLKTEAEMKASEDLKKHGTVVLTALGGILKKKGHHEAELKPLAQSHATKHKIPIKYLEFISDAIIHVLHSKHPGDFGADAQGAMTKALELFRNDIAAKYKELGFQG
Description: as §1

Cytokine 1 (human) = Cytokine 1 (human) (human)
Description: as §1

Pepsinogen (pork) = Pepsinogen (pork) (pork, UniProt P00791 16-385)
Pepsinogen (pork), sequence (P00791 16-385): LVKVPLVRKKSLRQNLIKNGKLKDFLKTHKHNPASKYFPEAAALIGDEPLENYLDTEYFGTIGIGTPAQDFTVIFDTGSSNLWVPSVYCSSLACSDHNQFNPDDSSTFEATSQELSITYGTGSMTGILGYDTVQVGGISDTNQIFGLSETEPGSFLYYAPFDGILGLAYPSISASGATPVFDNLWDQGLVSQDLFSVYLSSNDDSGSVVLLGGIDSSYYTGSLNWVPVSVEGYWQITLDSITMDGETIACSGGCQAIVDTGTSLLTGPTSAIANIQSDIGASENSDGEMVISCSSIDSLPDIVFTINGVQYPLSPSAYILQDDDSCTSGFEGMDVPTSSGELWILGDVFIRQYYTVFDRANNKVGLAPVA
Description: as §1

[1] = molecular target: Cell surface receptor 3 (human) (human)
Description: as §1

Trypsinogen (cow) = molecular target: T4, Trypsinogen (cow) (cow, UniProt P00760 18-246)
T4 sequence (looked up): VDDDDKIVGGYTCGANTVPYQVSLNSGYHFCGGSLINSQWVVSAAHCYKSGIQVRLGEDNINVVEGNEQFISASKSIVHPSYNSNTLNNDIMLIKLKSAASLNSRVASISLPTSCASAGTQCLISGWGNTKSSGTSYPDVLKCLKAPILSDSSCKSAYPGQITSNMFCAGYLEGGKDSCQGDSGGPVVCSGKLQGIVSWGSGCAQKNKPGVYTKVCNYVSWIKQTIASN
Description: as §1

[2] = molecular target: Cell surface receptor 1 (human) (human)
Description: as §1

[3] = molecular target: Anti-human Fab (Dianova, # 109-005-097)
Description: as §1

B1: Camille (format not stated) (antibody, V domains shown)
VH: QVQLQQSGPGLVKPSQTLSLTCAISGESVSTSSAAWNWIRQSPSRGLEWLGRTYYRSKWKHEYAVSVKSRITINPDTSKNQFSLQLNSVTPEDTAVYYCARDRYYYSAFDYWGQGTLVTVSS
VL: QSALTQPASVSGSPGQSITISCTGTSSDVGGYNSVSWYQQHPGKAPKLLIYAVSNRPSGVSNRFSGSKSGNTASLTISGLQAEDEADYYCASYDERFTRVFGGGTKLTVLG
notes: also called Antibody Camille
Q: Which results are given for B1?
A: signal normalized to reference antibody MOR03207 (Lectin (Lens culinaris)): 1 ratio; signal normalized to reference antibody MOR03207 (Lysozyme (chicken)): 0 ratio; signal normalized to reference antibody MOR03207 (human M-CSF): 244 ratio; signal normalized to reference antibody MOR03207 (RNase A (cow)): 1 ratio; signal normalized to reference antibody MOR03207 (Transferrin (bovine)): 1 ratio; signal normalized to reference antibody MOR03207 (Cytochrome c (cow)): 1 ratio; signal normalized to reference antibody MOR03207 (Myoglobin (horse)): 1 ratio; signal normalized to reference antibody MOR03207 (Cytokine 1 (human)): 1 ratio; signal normalized to reference antibody MOR03207 (Pepsinogen (pork)): 1 ratio; signal normalized to reference antibody MOR03207 [1]: 1 ratio; signal normalized to reference antibody MOR03207 (Trypsinogen (cow)): 1 ratio; signal normalized to reference antibody MOR03207 [2]: 1 ratio; signal normalized to reference antibody MOR03207 [3]: 1 ratio
